Experimental data reported in paper PMC8928218 (Frontiers in Cell and Developmental Biology, 2022).

Target: Pyrene-labeled G-actin (rabbit, UniProt P68135 1-377, pyrene label)
Assay: cell-based or functional assay

B1: human hexameric SEPT2/6/7 complex (complex)
chain 1: MSKQQPTQFINPETPGYVGFANLPNQVHRKSVKKGFEFTLMVVGESGLGKSTLINSLFLTDLYPERVIPGAAEKIERTVQIEASTVEIEERGVKLRLTVVDTPGYGDAINCRDCFKTIISYIDEQFERYLHDESGLNRRHIIDNRVHCCFYFISPFGHGLKPLDVAFMKAIHNKVNIVPVIAKADTLTLKERERLKKRILDEIEEHNIKIYHLPDAESDEDEDFKEQTRLLKASIPFSVVGSNQLIEAKGKKVRGRLYPWGVVEVENPEHNDFLKLRTMLITHMQDLQEVTQDLHYENFRSERLKRGGRKVENEDMNKDQILLEKEAELRRMQEMIARMQAQMQMQMQGGDGDGGALGHHV
chain 2: MAATDIARQVGEGCRTVPLAGHVGFDSLPDQLVNKSVSQGFCFNILCVGETGLGKSTLMDTLFNTKFEGEPATHTQPGVQLQSNTYDLQESNVRLKLTIVSTVGFGDQINKEDSYKPIVEFIDAQFEAYLQEELKIRRVLHTYHDSRIHVCLYFIAPTGHSLKSLDLVTMKKLDSKVNIIPIIAKADAISKSELTKFKIKITSELVSNGVQIYQFPTDDESVAEINGTMNAHLPFAVIGSTEELKIGNKMMRARQYPWGTVQVENEAHCDFVKLREMLIRVNMEDLREQTHTRHYELYRRCKLEEMGFKDTDPDSKPFSLQETYEAKRNEFLGELQKKEEEMRQMFVQRVKEKEAELKEAEKELHEKFDRLKKLHQDEKKKLEDKKKSLDDEVNAFKQRKTAAELLQSQGSQAGGSQTLKRDKEKKNNPWLCTE
chain 3: MSVSARSAAAEERSVNSSTMVAQQKNLEGYVGFANLPNQVYRKSVKRGFEFTLMVVGESGLGKSTLINSLFLTDLYSPEYPGPSHRIKKTVQVEQSKVLIKEGGVQLLLTIVDTPGFGDAVDNSNCWQPVIDYIDSKFEDYLNAESRVNRRQMPDNRVQCCLYFIAPSGHGLKPLDIEFMKRLHEKVNIIPLIAKADTLTPEECQQFKKQIMKEIQEHKIKIYEFPETDDEEENKLVKKIKDRLPLAVVGSNTIIEVNGKRVRGRQYPWGVAEVENGEHCDFTILRNMLIRTHMQDLKDVTNNVHYENYRSRKLAAVTYNGVDNNKNKGQLTKSPLAQMEEERREHVAKMKKMEMEMEQVFEMKVKEKVQKLKDSEAELQRRHEQMKKNLEAQHKELEEKRRQFEDEKANWEAQQRILEQQNSSRTLEKNKKKGKIF
- fold decrease in actin monomer turnover in the elongation phase (tau, the inverse value of the rate constant) in the pyrene actin polymerization assay, 2 µM actin, relative to actin alone: ~1.4 fold
